In FireProtDB (doi:10.1021/bi00250a042):

B1: Subtilisin-chymotrypsin inhibitor-2A, P01053 (parent)
chain: MSSVEKKPEGVNTGAGDRHNLKTEWPELVGKSVEEAKKVILQDKPEAQIIVLPVGTIVTMEYRIDRVRLFVDKLDNIAQVPRVG

Variants of: B1
Settings: Hordeum vulgare; pH 6.3; 25 °C; GdnHCl; Fluorescence; MES 450 mM; reversible: yes; structure 2CI2; whole UniProt chain shown

| Variant | ddG of mutation (higher = less stable) [kcal/mol] | denaturant m value [kcal/mol/M] | denaturant midpoint (higher = more stable) [M] | unfolding free energy [kcal/mol] |
| --- | --- | --- | --- | --- |
| MSSVEKKPEGVNTGAGDRHNLKTEWPELVGKSVEEAKKVILQDKPEAQIIVLPVGTIVAMEYRIDRVRLFVDKLDNIAQVPRVG [T59A] | 0.68 | 1.89 | 3.63 | 6.86 |
| MSSVEKKPEGVNTGAGDRHNLKTEWPELVGKSVEEAKKVILQDKPEAQIIVLPVGTIVDMEYRIDRVRLFVDKLDNIAQVPRVG [T59D] | 0.04 | 1.87 | 4.01 | 7.5 |
| MSSVEKKPEGVNTGAGDRHNLKTEWPELVGKSVEEAKKVILQDKPEAQIIVLPVGTIVTMAYRIDRVRLFVDKLDNIAQVPRVG [E61A] | 1.06 | 1.78 | 3.64 | 6.48 |
| MSSVEKKPEGVNTGAGDRHNLKTEWPELVGKSVEEAKKVILQDKPEAQIIVLPVGTIVAMAYRIDRVRLFVDKLDNIAQVPRVG [T59A E61A] | 0.67 | 1.94 | 3.54 | 6.87 |
